Results reported in patent US20240400720A1 (NOVIMMUNE S A, published 2024).
Values belong to the binder of their own block, whether it stands above or below them.

Experiments:
[1] = biological target: T1, human CD47 on the cell surface (human, UniProt Q08722 19-323); assay: CD47-SIRPα inhibition assay on Raji cells (competition with soluble SIRPα)
T1 construct: whole, on cells; also called huCD47; native CD47

[2] = biological target: T2, human CD19 (human, UniProt P15391 20-291, limits assumed); assay: affinity maturation of B7
T2 construct: also called hCD19
T2 sequence (looked up): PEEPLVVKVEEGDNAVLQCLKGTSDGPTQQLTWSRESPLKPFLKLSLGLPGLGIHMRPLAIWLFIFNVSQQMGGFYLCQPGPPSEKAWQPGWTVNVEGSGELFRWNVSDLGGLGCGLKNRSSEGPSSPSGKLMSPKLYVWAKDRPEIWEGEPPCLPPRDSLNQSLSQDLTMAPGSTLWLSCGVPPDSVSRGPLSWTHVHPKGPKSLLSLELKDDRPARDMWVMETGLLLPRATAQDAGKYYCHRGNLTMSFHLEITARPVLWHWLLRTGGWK

[3] = biological target: T3, human CD19 on Raji cells (human, UniProt P15391 20-556); assay: FACS on Raji cells (CD19-positive), dose-response
T3 construct: whole, on cells; also called native form of hCD19
T3 sequence (looked up): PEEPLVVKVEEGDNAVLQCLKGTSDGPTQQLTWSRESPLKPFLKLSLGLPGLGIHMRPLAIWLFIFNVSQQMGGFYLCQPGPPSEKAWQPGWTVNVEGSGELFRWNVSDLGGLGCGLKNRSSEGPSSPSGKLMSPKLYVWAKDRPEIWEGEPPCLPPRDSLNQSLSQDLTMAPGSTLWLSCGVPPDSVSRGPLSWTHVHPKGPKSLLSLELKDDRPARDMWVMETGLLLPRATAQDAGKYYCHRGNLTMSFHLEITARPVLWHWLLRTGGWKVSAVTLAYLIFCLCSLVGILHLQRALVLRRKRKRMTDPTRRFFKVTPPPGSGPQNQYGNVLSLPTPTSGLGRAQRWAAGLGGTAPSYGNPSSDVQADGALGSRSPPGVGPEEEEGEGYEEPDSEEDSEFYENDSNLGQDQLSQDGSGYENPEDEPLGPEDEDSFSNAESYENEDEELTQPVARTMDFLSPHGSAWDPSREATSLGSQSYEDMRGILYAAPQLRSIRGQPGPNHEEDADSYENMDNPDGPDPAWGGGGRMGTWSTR

[4] = biological target: T2, human CD19; assay: parental antibody, weaker than D11
[5] = biological target: T4, human CD47 (human, UniProt Q08722 19-141, limits assumed); assay: affinity ranking told with the hemagglutination test
T4 construct: also called hCD47
Procedure: CD47 MAbs were tested for their ability to induce homotypic clustering of erythrocytes (hemagglutination). 10 microliters of human whole blood was diluted in 40 microliters of antibody solution in PBS at different concentrations (range: 0.003 microg/ml to 50 microg/ml final Mab concentration) in flat-bottom 96 well plates. The blood-antibody mix was incubated O/N at 37° C. without shaking. At the end of the incubation, the plates were agitated manually, tilted at about […], and let to rest for about 10 minutes.

[6] = biological target: T1, human CD47 on the cell surface; assay: CD47-SIRPα competitive binding assay: His-tagged soluble human SIRPα (200 ng/ml) on hCD47-transfected CHO cells, antibody 3.3 pM-330 nM; blocked ligand SIRPα

IC50 [1]: 0.066 nM
B1: CD47xCD19 bispecific antibody with CD47 arm Ke8G11 (bispecific antibody)
heavy: not shown
light 1: DIQMTQSPSSLSASVGDRVTITCRASQSIGRYLNWYQQKPGKAPKLLIYAASSLQSGVPSRFSGSGSGTDFTLTISSLQPEDFATYYCQQMHPRGPKTFGQGTKVEIKRTVAAPSVFIFPPSDEQLKSGTASVVCLLNNFYPREAKVQWKVDNALQSGNSQESVTEQDSKDSTYSLSSTLTLSKADYEKHKVYACEVTHQGLSSPVTKSFNRGEC
light 2: NFMLTQPHSVSESPGKTVTISCTRSSGSIEDKYVQWYQQRPGSSPTIVIYYDNERPSGVPDRFSGSIDSSSNSASLTISGLKTEDEADYYCQTYDQSLYGWVFGGGTKLTVLGQPKAAPSVTLFPPSSEELQANKATLVCLISDFYPGAVTVAWKADSSPVKAGVETTTPSKQSNNKYAASSYLSLTPEQWKSHRSYSCQVTHEGSTVEKTVAPTECS
notes: also called Ke8G11 CD47Xcd19 BsAb; κλ body

binding result [2]: binds
binding result [3]: binds
B2: D11 antibody (antibody, human IgG1, lambda, V domains shown)
VH: not shown
VL: NFMLTQPHSVSESPGKTVTISCTRSSGSIDDKFVQWYQQRPGSSPTTVIYYDNIRPSGVPDRFSGSIDSSSNSASLTISGLKTEDEADYYCQSYDASLYGWVFGGGTKLTVLG
notes: anti-CD19, IgG, lambda; also called L7B7_D11

binding result [4]: binds
binding result [3]: binds
B3: B7 antibody (antibody, human IgG1, lambda, V domains shown)
VH: not shown
VL: NFMLTQPHSVSESPGKTVTISCTRSSGSIADKYVQWYQQRPGSSPTTVIYEDNQRPSGVPDRFSGSIDSSSNSASLTISGLKTEDEADYYCQSYDSSLYGWVFGGGTKLTVLG
notes: anti-CD19, IgG, lambda (IGLV6-57); parental clone; also called 1B7

binding result [5]: binds
binding result [6]: binds
B4: Ke8A3 antibody (antibody, human IgG1, kappa, V domains shown)
VH: not shown
VL: DIQMTQSPSSLSASVGDRVTITCRVSQSISKYLNWYQQKPGKAPKLLIYAASSLQSGVPSRFSGSGSGTDFTLTISSLQPEDFATYYCQQRHPRGPSTFGQGTKVEIKR
notes: IgG
